The sequences below were run against HLA-A*02:01 (assay: IEDB peptide-MHC binding, purified MHC/competitive/radioactivity; ≥ and ≤ were set here for values at or beyond the usual limits of such assays). Settings: source organism: Trypanosoma cruzi.

Which IC50 does the source give for LLGLWGLATA here?
Its IC50 is 24 nM.

GLLPSLLLLL was tested. Which IC50 did it give?
Its IC50 is 3.1 nM.

For FVNYNFTLV, which IC50 is on record?
The IC50 was 0.25 nM.

Which IC50 does the source give for FANHDFTLV here?
Its IC50 is 101 nM.

How did the IC50 turn out when FLSHDFTLV was run?
The IC50 was 0.46 nM.

How did the IC50 turn out when FANYKFTLV was run?
Its IC50 is 49 nM.

Which IC50 does the source give for FLSHNFTLVF here?
The IC50 was 0.61 nM.

How did the IC50 turn out when FANYNFTLV was run?
Its IC50 is 0.47 nM.

With FANYNFTLL as the sequence, how does the IC50 read?
The IC50 was 1500 nM.

FVDYNFSLV was tested. Which IC50 did it give?
Its IC50 is 1.1 nM.

For RVSRPTTVV, which IC50 is on record?
Its IC50 is 2490 nM.

How did the IC50 turn out when SLSHYFTLVF was run?
Its IC50 is 1.6 nM.

For FVSCDFTIV, which IC50 is on record?
Its IC50 is 30 nM.

FANNKFTLV was tested. Which IC50 did it give?
Its IC50 is 116 nM.

With IANYNFTLV as the sequence, how does the IC50 read?
Its IC50 is 29600 nM.

ELLRPTTLV was tested. Which IC50 did it give?
The IC50 was 2410 nM.

Which IC50 does the source give for RLLPSLLLLL here?
The IC50 was 0.8 nM.

For FVNHRFTLV, which IC50 is on record?
The IC50 was 304 nM.
